This note sets out measurements from publication PMC12266122 (2025).

B1: FLAG-TSC22D2 (full length, wild type) [human] / HA-NRBP1 WT [human] (parent complex)
chain 1: MSKMPAKKKSCFQITSVTTAQVATSITEDTESLDDPDESRTEDVSSEIFDVSRATDYGPEEVCERSSSEETLNNVGDAETPGTVSPNLLLDGQLAAAAAAPANGGGVVSARSVSGALASTLAAAATSAPAPGAPGGPQLAGSSAGPVTAAPSQPPTTCSSRFRVIKLDHGSGEPYRRGRWTCMEYYERDSDSSVLTRSGDCIRHSSTFDQTAERDSGLGATGGSVVVVVASMQGAHGPESGTDSSLTAVSQLPPSEKMSQPTPAQPQSFSVGQPQPPPPPVGGAVAQSSAPLPPFPGAATGPQPMMAAAQPSQPQGAGPGGQTLPPTNVTLAQPAMSLPPQPGPAVGAPAAQQPQQFAYPQPQIPPGHLLPVQPSGQSEYLQQHVAGLQPPSPAQPSSTGAAASPATAATLPVGTGQNASSVGAQLMGASSQPSEAMAPRTGPAQGGQVAPCQPTGVPPATVGGVVQPCLGPAGAGQPQSVPPPQMGGSGPLSAVPGGPHAVVPGVPNVPAAVPAPSVPSVSTTSVTMPNVPAPLAQSQQLSSHTPVSRSSSIIQHVGLPLAPGTHSAPTSLPQSDLSQFQTQTQPLVGQVDDTRRKSEPLPQPPLSLIAENKPVVKPPVADSLANPLQLTPMNSLATSVFSIAIPVDGDEDRNPSTAFYQAFHLNTLKESKSLWDSASGGGVVAIDNKIEQAMDLVKSHLMYAVREEVEVLKEQIKELVERNSLLERENALLKSLSSNDQLSQLPTQQANPGSTSQQQAVIAQPPQPTQPPQQPNVSSA
chain 2: not shown

In this test the parent is B1. Nature of the test: co-immunoprecipitation (HA-IP) with immunoblot densitometry; HEK293 cells stably expressing HA-NRBP1, 36 hours after transfection; N = 2, n = 2; read off a plot.
As for chain 1 R161A, the response was about 0.76.
For the variant chain 1 R161E, chain 1 F162A, chain 1 R179E, the response was about 0.02.
In the case of chain 1 R179A, the response was about 0.22.
As to chain 1 R179E, the response is about 0.09.
To chain 1 R161A, chain 1 F162A belongs about 0.35.
